T1: mNPR1-mFc (mouse)
T1 construct: also called mouse NPR1 extracellular domain expressed with a C-terminal mouse IgG2a
T1 chain: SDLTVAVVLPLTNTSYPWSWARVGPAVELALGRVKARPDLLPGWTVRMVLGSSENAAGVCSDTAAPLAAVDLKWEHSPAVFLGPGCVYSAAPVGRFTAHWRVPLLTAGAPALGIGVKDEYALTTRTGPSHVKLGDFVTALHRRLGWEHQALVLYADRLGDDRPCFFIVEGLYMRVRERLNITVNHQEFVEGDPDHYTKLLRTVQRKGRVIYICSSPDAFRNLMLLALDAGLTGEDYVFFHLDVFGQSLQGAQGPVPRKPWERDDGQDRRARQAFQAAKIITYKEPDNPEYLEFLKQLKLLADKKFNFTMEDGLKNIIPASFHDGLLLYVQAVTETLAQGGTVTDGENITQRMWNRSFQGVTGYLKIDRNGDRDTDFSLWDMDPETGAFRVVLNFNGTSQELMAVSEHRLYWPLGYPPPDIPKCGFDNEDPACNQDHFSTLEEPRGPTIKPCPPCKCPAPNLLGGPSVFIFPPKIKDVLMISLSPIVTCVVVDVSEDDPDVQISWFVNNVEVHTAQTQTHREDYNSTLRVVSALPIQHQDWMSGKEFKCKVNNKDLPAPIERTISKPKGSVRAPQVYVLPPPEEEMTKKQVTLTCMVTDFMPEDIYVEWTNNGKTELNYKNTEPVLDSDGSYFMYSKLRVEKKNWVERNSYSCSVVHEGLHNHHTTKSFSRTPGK

T2: human NPR1 on HEK293/hNPR1.myc.DDK cells with 10 nM hANP (NPR1-ANP complex) (human, UniProt P01160 124-151)
T2 construct: also called NPR1-ANP Complex on the Cell Surface
T2 sequence: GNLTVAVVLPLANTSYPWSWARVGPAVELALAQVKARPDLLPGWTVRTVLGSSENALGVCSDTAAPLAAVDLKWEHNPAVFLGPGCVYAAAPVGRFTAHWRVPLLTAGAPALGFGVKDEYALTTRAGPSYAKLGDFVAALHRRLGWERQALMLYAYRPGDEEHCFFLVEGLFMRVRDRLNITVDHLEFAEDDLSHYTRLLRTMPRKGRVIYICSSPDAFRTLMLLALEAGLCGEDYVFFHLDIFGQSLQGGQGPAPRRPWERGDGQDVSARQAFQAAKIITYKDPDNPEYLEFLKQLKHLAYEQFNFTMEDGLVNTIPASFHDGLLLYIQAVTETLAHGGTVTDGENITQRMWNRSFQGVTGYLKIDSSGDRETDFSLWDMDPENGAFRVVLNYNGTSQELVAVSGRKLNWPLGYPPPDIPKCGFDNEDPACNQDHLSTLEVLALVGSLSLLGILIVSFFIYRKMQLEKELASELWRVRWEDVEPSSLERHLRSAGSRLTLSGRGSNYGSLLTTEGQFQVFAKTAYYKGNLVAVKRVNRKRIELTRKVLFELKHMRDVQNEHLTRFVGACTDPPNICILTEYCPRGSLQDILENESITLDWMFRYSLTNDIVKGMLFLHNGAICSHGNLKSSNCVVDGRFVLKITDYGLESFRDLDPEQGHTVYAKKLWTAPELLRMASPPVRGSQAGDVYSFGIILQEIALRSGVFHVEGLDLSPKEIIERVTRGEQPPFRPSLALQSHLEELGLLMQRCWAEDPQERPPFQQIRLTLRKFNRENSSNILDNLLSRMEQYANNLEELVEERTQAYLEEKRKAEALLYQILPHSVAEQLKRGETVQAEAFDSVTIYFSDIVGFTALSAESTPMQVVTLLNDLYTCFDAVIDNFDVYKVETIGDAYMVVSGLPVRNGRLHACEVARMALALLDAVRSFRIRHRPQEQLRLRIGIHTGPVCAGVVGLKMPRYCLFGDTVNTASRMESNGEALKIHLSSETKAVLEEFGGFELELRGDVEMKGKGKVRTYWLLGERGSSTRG
T2 sequence (peptide): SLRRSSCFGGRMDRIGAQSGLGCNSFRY

T3: human NPR1 on HEK293/hNPR1.myc.DDK cells (0 hANP) (human, UniProt P16066 33-1061)
T3 construct: Full-length receptor on engineered HEK293 cells, no ANP added; also called HEK293/hNPR1.myc.DKK
T3 sequence: T2 sequence

T4: monkey NPR1 extracellular domain expressed with a C-terminal myc-myc-hexahistidine (mfNPR1-MMH) (monkey, UniProt P16066 33-473 (human entry))
T4 construct: also called monomeric monkey NPR1
T4 chain: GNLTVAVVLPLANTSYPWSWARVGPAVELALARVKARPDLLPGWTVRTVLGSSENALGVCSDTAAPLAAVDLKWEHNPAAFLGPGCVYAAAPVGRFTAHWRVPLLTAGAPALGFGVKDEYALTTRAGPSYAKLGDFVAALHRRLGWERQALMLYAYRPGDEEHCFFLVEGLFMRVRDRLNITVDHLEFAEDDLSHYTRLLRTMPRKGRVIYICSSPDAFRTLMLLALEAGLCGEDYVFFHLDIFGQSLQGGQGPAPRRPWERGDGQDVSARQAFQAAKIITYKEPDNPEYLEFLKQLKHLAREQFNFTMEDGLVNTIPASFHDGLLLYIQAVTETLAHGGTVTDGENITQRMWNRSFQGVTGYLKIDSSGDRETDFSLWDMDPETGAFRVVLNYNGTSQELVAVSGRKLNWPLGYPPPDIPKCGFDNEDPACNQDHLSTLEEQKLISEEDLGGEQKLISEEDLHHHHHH

T5: human NPR1 extracellular domain expressed with a C-terminal mouse IgG2a (hNPR1-mFc) (human)
T5 construct: also called hNPR1-Fc; human NPR1 dimer
T5 chain: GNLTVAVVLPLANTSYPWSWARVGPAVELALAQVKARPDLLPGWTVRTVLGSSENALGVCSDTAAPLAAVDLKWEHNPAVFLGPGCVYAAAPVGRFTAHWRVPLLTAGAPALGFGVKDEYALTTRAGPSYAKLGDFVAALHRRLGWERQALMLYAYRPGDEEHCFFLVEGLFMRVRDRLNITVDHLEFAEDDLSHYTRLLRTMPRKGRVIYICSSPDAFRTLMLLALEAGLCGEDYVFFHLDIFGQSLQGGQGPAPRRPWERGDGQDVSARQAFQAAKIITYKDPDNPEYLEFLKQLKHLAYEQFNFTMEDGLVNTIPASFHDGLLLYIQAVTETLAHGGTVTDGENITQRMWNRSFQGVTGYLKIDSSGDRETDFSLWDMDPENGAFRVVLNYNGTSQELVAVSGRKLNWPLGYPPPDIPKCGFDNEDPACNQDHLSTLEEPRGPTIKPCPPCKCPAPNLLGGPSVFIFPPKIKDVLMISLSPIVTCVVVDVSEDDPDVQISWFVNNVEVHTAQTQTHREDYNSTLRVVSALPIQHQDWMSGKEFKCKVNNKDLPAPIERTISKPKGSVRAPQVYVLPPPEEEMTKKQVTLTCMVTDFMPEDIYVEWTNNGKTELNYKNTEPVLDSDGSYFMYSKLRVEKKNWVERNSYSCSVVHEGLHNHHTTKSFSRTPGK

B1: mAb25502 (antibody, human IgG4, V domains shown)
VH: QLQLQESGPGLVKPSETLSLTCTVSGGSISSSSYYWGWIRQPPGKGLEWIGSIYYSGSPYYIPSLKSRVTISVDTSKNQFSLKLSSVTAADTAMYYCARQGRGIARAGPFDYWGQGTLVTVSS
VL: DIQMTQSPSSLSASVGDRVTITCRASQGISNYLAWYQEKPGKVPKLLIYAASTLQSGVPSRFSGSGSGTDFTLTITSLQSEDVATYYCQKYNSAPPWTFGQGTKVEIK
B2: mAb22033 (antibody, human IgG4, V domains shown)
VH: QVQLVQSGAEVKKPGASVTVSCKASGYTFTDYYMHWVRQAPGQGLEWMGWIKPNSGGTNSAQRFQGRITMTWDTSISTAYMELSRLRSDDTAVYYCSRGGPVMNYYYYYGMDVWGQGTTVTVSS
VL: NIQMTQSPSSLSASVGDRVTITCRASQSIDSYLNWYQQKPGKAPKLLIYVASSLQSGVPSRFSGSGSGKDFTLTISSLQPEDFATYYCQQSYSIPTFGQGTRLEIK
B3: mAb22810 (antibody, V domains shown)
VH: EVQLVESGGGLVKPGGSLRLSCVVSGFTFRIYTMNWVRQAPGKGLEWVASISSSSSFINYADSLKGRFTISRDNAQNSLYLQMNSLRAEDTAIYYCARAAGNDVLPGRMDVWGQGTSVTVSS
VL: EIVLTQSPGTLSLSPGERATLSCRASQSVSSNYLAWYQQKPGQVPSLLIYGASSRATGIPDRFSGSGSGTDFTLTITRLEPEDFAVYYCQQYGISPWTFGQGTKVEIK

How the values were obtained:
mNPR1-mFc [1] = molecular target: T1, mNPR1-mFc; assay: SPR Biacore, mAb captured by anti-human Fc, 37C
Protocol: (§1) Equilibrium dissociation constant (KD) for different NPR1 reagents binding to purified anti-NPR1 monoclonal antibodies (mAbs) were determined using a real-time surface plasmon resonance based Biacore 4000 biosensor. All binding studies were performed in 10 mM HEPES, 150 mM NaCl, 3 mM EDTA, and 0.05% v/v Surfactant Tween-20, pH 7.4 (HBS-ET) running buffer at 25° C. and 37° C. The Biacore CM5 sensor chip surface was first derivatized by amine coupling with either mouse anti-human Fc specific mAb (GE Healthcare, #BR100839) or goat anti-human Fcy specific polyclonal antibody (Jackson ImmunoResearch Laboratories, #BR-1008-39) to capture anti-NPR1 mAbs.

mfNPR1-mFc:hBNP complex = molecular target: T6, mfNPR1-mFc:hBNP complex (monkey; human, UniProt P16860 103-134); assay: SPR Biacore, mAb captured by anti-human Fc, 37C
T6 construct: Receptor-Fc pre-complexed with 10-fold hBNP
Protocol: as §1

mNPR1-mFc [2] = molecular target: T1, mNPR1-mFc; assay: SPR Biacore, mAb captured by anti-human Fc, 25C
Protocol: as §1

[3] = molecular target: T2, human NPR1 on HEK293/hNPR1.myc.DDK …; assay: ECL cell binding (MSD), +10 nM hANP
Protocol: (§2) All cells were washed once with 1×PBS with Ca²⁺/Mg²⁺ and counted with a Cellometer™ Auto T4 cell counter (Nexcelom Bioscience). Approximately 2.0×10⁴ HEK293/hNPR1.myc.DDK or HEK293 cells were seeded separately onto 96-well carbon electrode plates (MULTI-ARRAY high bind plate, Meso Scale Discovery (MSD, Rockville, MD)) and incubated for 1 hour (h) at 37° C. Nonspecific binding sites were blocked by 2% BSA (w/v) in 1×PBS with Ca²⁺/Mg²⁺for 1 h at room temperature (RT). HEK293/hNPR1.myc. […] The plate-bound antibodies were detected with SULFO-TAG™-conjugated goat polyclonal anti-human IgG antibody specific for heavy and light chains (Jackson Immunoresearch, West Grove, PA) for 1 h, RT.
(§3) After washes, plates were developed with Read Buffer (MSD, Rockville, MD) according to manufacturer's recommended procedure and luminescent signals were recorded with a SECTOR Imager 600 (MSD, Rockville, MD). Luminescence intensity, measured in relative light units (RLU), was recorded to indicate the binding intensity of each antibody at the range of concentrations.
(§4) In addition, direct binding signals (RLU) were analyzed as a function of the antibody concentration and data were fitted with a sigmoidal (four-parameter logistic) dose-response model using R statistical package (open source).

[4] = molecular target: T3, human NPR1 on HEK293/hNPR1.myc.DDK …; assay: ECL cell binding (MSD), 0 hANP
Protocol: as §2, §3, §4

[5] = molecular target: T3, human NPR1 on HEK293/hNPR1.myc.DDK …; assay: cell-based or functional assay
[6] = molecular target: T4, monkey NPR1 extracellular domain …; assay: SPR, mAb captured, 37 C
Protocol: as §1

[7] = molecular target: T5, human NPR1 extracellular domain …; assay: SPR, mAb captured, 37 C
Protocol: as §1

[8] = molecular target: T7, mouse NPR1 extracellular domain expressed with a C-terminal myc-myc-hexahistidine (mNPR1-MMH) (mouse, UniProt P18293 29-469); assay: SPR, mAb captured, 37 C
Protocol: as §1
Target sequence in this assay (P18293 other isoform, or with tags, fused parts or gaps): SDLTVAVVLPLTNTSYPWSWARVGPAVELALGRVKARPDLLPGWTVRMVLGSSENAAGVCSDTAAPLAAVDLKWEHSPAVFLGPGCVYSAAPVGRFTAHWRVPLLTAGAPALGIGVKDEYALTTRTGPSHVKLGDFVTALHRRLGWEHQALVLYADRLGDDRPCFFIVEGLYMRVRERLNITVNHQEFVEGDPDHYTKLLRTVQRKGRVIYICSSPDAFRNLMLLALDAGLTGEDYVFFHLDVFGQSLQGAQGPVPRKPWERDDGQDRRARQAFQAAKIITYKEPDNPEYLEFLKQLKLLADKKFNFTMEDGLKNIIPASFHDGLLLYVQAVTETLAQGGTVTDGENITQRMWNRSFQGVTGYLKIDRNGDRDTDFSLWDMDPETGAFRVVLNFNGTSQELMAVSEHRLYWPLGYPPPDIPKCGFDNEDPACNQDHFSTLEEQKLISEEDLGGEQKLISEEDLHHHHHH

[9] = molecular target: T4, monkey NPR1 extracellular domain …; assay: SPR, mAb captured, 25 C
Protocol: as §1

[10] = molecular target: T5, human NPR1 extracellular domain …; assay: SPR, mAb captured, 25 C
Protocol: as §1

[11] = molecular target: T7, mouse NPR1 extracellular domain …; assay: SPR, mAb captured, 25 C
Protocol: as §1

Row | Binder | 100 nM Ag Bound (RU) (mNPR1-mFc [1]) | 100 nM Ag Bound (RU) (mfNPR1-mFc:hBNP complex) | Kd (mfNPR1-mFc:hBNP complex) [nM] | koff (mfNPR1-mFc:hBNP complex) [s⁻¹] | kon (mfNPR1-mFc:hBNP complex) [M⁻¹ s⁻¹] | t½ (mfNPR1-mFc:hBNP complex) [h] | 100 nM Ag Bound (RU) (mNPR1-mFc [2]) | Ratio at 3.7 nM Ab concentration of Cell Binding Signal (RLU) to HEK293/hNPR1.myc.DKK relative to parental HEK293 [3] [ratio] | other results
1 | B1 | 1 | 139 | 5.65 | 0.000481 | 85200 | 0.4 | 1 | 14 | binding result (mNPR1-mFc [1]): no binding (tested: 100 nM)
2 | B2 | 1 | 167 | 1.3 | 8.8e-05 | 67500 | 2.19 | 0 | 236 | binding result (mNPR1-mFc [2]): no binding (tested: 100 nM); EC50 [3]: 0.82 nM; EC50 [4]: 0.49 nM; Ratio at 3.7 nM Ab concentration of Cell Binding Signal (RLU) to HEK293/hNPR1.myc.DKK relative to parental HEK293 [4]: 207 ratio; % Activation (vs ANP max), Expt 1 [5]: 130%; % Activation (vs. ANP max), Expt II [5]: 129%; EC50 (nM), calcium flux, Expt 1 [5]: 83.7 nM; EC50 (nM), calcium flux, Expt II [5]: 41.6 nM
3 | B3 | – | – | – | – | – | – | – | – | 100 nM Ag Bound (RU) [6]: 0 RU; 100 nM Ag Bound (RU) [7]: 9 RU; 100 nM Ag Bound (RU) [8]: -2 RU; 100 nM Ag Bound (RU) [9]: 1 RU; binding result [9]: no binding (tested: 100 nM); 100 nM Ag Bound (RU) [10]: 4 RU; 100 nM Ag Bound (RU) [11]: -1 RU

From patent US20240309103A1 (Regeneron, published 2024)
